Several values for one entry are separate records, joined by “and”; a condition that tells them apart may be missing. Identical values can stand only once.
Key:
[1] = molecular target: tBamA, the 16-stranded transmembrane domain of the BamA OMP insertase (UniProt P0A940 425-810); assay: native MS
[2] = molecular target: T1, OmpT (E. coli, UniProt P09169 21-317); assay: native MS
T1 sequence (looked up): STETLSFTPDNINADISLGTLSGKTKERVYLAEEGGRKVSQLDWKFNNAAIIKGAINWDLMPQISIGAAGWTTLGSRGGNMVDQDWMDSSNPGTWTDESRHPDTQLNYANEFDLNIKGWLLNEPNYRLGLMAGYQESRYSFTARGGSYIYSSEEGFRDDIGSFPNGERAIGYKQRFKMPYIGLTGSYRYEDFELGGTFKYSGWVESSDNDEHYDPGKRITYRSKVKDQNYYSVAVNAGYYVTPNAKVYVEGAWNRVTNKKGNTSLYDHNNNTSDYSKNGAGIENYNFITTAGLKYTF

[3] = molecular target: T2, OmpF (UniProt P02931 23-362); assay: native MS
T2 sequence (looked up): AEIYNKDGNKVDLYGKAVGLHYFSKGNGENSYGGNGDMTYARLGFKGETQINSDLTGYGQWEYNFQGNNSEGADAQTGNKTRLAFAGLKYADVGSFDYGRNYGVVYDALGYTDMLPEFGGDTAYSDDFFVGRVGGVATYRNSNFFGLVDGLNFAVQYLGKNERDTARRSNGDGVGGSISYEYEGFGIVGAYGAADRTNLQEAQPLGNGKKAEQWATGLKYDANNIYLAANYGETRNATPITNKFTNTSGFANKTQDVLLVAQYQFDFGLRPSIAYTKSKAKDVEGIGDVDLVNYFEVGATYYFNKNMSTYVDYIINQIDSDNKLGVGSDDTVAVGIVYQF

[4] = molecular target: the molecule itself; assay: native MS
[5] = molecular target: T3, tOmpA, the 8-stranded transmembrane domain of OmpA (UniProt P0A910 22-197); assay: native MS
T3 sequence: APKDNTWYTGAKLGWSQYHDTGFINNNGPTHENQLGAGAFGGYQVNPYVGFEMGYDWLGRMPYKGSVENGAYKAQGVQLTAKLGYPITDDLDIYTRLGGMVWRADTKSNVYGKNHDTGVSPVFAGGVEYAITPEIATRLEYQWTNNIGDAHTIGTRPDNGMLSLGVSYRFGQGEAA

[6] = molecular target: T4, PagP (UniProt P37001 26-186); assay: native MS
T4 sequence (looked up): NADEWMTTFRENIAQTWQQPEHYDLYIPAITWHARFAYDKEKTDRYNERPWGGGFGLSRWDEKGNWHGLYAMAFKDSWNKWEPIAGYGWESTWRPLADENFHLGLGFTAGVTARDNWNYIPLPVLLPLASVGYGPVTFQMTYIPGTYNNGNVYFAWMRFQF

[7] = molecular target: full-length BamA (UniProt P0A940 21-810); assay: cross-linking
[8] = molecular target: T5, full-length OmpA (UniProt P0A910 22-346); assay: cross-linking
T5 sequence (looked up): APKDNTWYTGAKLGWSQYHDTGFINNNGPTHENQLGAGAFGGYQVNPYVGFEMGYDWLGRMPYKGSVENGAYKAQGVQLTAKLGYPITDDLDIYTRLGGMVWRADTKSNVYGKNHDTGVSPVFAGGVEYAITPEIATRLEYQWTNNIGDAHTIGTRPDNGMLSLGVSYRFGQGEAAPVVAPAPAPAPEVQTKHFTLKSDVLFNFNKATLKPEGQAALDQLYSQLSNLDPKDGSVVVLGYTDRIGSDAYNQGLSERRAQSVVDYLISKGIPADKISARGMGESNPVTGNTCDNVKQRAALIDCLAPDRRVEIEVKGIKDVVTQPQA

Binder	stoichiometry N [1]	stoichiometry N [2]	stoichiometry N [3]	binding result [4]	stoichiometry N [5]	stoichiometry N [6]	stoichiometry N [7]	stoichiometry N [8]
Skp (natural protein, Escherichia coli, UniProt P0AEU7 21-161, looked up) ADKIAIVNMGSLFQQVAQKTGVSNTLENEFKGRASELQRMETDLQAKMKKLQSMKAGSDRTKLEKDVMAQRQTFAQKAQAFEQDRARRSNEERGKLVTRIQTAVKSVANSQDIDLVVDANAVAYNSSDVKDITADVLKQVK	1 Skp (trimer) per OMP and ≤ 2 Skp (trimer) per OMP	≤ 2 Skp (trimer) per OMP and 1 Skp (trimer) per OMP	1 Skp (trimer) per OMP and ≤ 2 Skp (trimer) per OMP	binds	1 Skp (trimer) per OMP	1 Skp (trimer) per OMP		
His-tagged Skp (natural protein, Escherichia coli) ADKIAIVNMGSLFQQVAQKTGVSNTLENEFKGRASELQRMETDLQAKMKKLQSMKAGSDRTKLEKDVMAQRQTFAQKAQAFEQDRARRSNEERGKLVTRIQTAVKSVANSQDIDLVVDANAVAYNSSDVKDITADVLKQVK							2 Skp (trimer) per OMP	1 Skp (trimer) per OMP
